Test results from paper PMC4191393, “Selective microRNA uridylation by Zcchc6 (TUT7) and Zcchc11 (TUT4)”.

Target: T1, r.Zcchc11 (TUT4) (Homo sapiens, UniProt Q5TAX3 225-1384)
T1 sequence: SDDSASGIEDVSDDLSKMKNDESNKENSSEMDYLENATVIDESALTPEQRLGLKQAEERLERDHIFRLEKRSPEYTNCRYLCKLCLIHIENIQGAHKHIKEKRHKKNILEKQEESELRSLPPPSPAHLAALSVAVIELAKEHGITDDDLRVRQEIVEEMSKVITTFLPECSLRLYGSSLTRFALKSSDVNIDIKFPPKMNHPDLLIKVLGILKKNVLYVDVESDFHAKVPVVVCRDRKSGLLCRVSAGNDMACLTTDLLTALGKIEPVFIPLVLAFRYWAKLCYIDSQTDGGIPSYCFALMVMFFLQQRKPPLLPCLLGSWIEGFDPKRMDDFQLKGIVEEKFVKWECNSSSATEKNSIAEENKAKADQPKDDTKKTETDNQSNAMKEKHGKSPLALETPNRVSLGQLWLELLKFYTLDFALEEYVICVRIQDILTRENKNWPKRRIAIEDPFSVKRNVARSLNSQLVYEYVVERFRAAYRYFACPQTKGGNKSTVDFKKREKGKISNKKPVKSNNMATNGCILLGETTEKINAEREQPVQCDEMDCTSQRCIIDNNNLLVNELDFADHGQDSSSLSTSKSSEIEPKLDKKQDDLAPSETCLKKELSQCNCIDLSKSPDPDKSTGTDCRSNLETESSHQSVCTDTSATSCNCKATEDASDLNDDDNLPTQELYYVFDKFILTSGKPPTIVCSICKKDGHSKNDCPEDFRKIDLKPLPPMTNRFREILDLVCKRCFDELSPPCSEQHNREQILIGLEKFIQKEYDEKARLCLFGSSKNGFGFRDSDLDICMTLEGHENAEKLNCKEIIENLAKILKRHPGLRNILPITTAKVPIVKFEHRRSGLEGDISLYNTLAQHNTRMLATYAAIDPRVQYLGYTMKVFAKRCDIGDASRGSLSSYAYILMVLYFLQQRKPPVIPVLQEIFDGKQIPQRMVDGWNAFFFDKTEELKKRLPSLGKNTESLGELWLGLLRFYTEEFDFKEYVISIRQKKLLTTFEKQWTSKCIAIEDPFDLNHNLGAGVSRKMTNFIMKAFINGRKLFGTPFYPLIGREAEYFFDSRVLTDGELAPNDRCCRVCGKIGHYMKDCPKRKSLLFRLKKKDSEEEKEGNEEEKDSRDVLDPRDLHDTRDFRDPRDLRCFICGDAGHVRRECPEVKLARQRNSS
Assay: EMSA; 2 mM Mg2+; RNA 2.5 nM; EMSA: 500 mM NaCl, 20 mM HEPES pH 7.5, 2 mM MgCl2, 5% glycerol, 1 mM TCEP; 10 ul, 3-50 ng protein, 2.5 nM RNA; native 12% PAGE in 0.5x TBE; temperature not stated
Settings: protein: recombinant; tags: N-terminal His6-Trx, removed with TEV; label: 5'-32P; single strand

UGAGGUAGUAGUUUGUACAGUU (ssRNA) [let-7g guide]: binds.
